Test results published in paper PMC3654483 (Bioscience Reports, 2013).

Molecular target: the molecule itself
Assay: AUC

Row | Protein | binding result
1 | Sirt1-214-747 (domain or fragment) ELDDMTLWQIVINILSEPPKRKKRKDINTIEDAVKLLQECKKIIVLTGAGVSVSCGIPDFRSRDGIYARLAVDFPDLPDPQAMFDIEYFRKDPRPFFKFAKEIYPGQFQPSLCHKFIALSDKEGKLLRNYTQNIDTLEQVAGIQRIIQCHGSFATASCLICKYKVDCEAVRGDIFNQVVPRCPRCPADEPLAIMKPEIVFFGENLPEQFHRAMKYDKDEVDLLIVIGSSLKVRPVALIPSSIPHEVPQILINREPLPHLHFDVELLGDCDVIINELCHRLGGEYAKLCCNPVKLSEITEKPPRTQKELAYLSELPPTPLHVSEDSSSPERTSPPDSSVIVTLLDQAAKSNDDLDVSESKGCMEEKPQEVQTSRNVESIAEQMENPDLKNVGSSTGEKNERTSVAGTVRKCWPNRVAKEQISRRLDGNQYLFLPPNRYIFHGAEVYSDSEDDVLSSSSCGSNSDSGTCQSPSLEEPMEDESEIEEFYNGLEDEPDVPERAGGAGFGTDGDDQEAINEAISVKQEVTDMNYPSNKS | binds
2 | Sirt1-214-664 (domain or fragment) ELDDMTLWQIVINILSEPPKRKKRKDINTIEDAVKLLQECKKIIVLTGAGVSVSCGIPDFRSRDGIYARLAVDFPDLPDPQAMFDIEYFRKDPRPFFKFAKEIYPGQFQPSLCHKFIALSDKEGKLLRNYTQNIDTLEQVAGIQRIIQCHGSFATASCLICKYKVDCEAVRGDIFNQVVPRCPRCPADEPLAIMKPEIVFFGENLPEQFHRAMKYDKDEVDLLIVIGSSLKVRPVALIPSSIPHEVPQILINREPLPHLHFDVELLGDCDVIINELCHRLGGEYAKLCCNPVKLSEITEKPPRTQKELAYLSELPPTPLHVSEDSSSPERTSPPDSSVIVTLLDQAAKSNDDLDVSESKGCMEEKPQEVQTSRNVESIAEQMENPDLKNVGSSTGEKNERTSVAGTVRKCWPNRVAKEQISRRLDGNQYLFLPPNRYIFHGAEVYSDSEDD | binds
